Eight molecules from patent US20070031511A1 (published 2007) can be followed below.

[ ]: non-standard residue; d: D form. pGlu = O=C1CC[C@@H](C(=O)O)N1

Assay [1] addresses Ggly receptor on IMGE-5 cells. Put plainly: cell-based or functional assay.
The target in assay [2] is T1, human CCK-2 receptor (human, UniProt P32239 1-447).
T1 construct: whole, on cells; One protein on two cell types (transfected COS-7, Jurkat); also called CCK-B receptor
T1 sequence (looked up): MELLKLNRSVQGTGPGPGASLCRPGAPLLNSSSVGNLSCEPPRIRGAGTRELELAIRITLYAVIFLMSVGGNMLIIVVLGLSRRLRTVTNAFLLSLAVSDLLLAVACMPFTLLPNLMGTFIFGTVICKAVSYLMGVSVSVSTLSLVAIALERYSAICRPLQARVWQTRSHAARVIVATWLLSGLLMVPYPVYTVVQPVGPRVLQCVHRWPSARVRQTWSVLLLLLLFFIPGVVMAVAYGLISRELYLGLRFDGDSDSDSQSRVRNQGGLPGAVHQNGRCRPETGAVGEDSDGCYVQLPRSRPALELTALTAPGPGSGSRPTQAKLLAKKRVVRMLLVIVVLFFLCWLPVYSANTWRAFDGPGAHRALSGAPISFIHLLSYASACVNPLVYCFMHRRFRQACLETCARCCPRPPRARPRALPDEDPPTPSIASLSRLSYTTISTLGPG
The experiment in a line: fitted [125I]-BH-CCK8 binding without competitor, displacement curve, Jurkat cells. As for the experimental part: (§1) Non-specific binding was evaluated with […] of unlabelled CCK₈. Incubation was stopped by adding 2 ml of ice-cold PBS containing 2% bovine serum albumin. After centrifugation, supernatants were removed and the radioactivity bound to the cell membranes was measured in a γ-counter (LKB, Wallac, Finland).
(§2) Values of the % maximum binding in the absence of competitor and of the IC₅₀ were obtained from the data presented in FIG. 21 by least squares fitting with the program Sigmaplot. Values from the indicated number of independent experiments were combined to obtain the mean values (±S.E.) presented above. Data were analyzed by one-way analysis of variance.

The target in assay [3] is T1, human CCK-2 receptor. Put plainly: fitted [125I]-BH-CCK8 binding without competitor, displacement curve, CCK-2 receptor on transfected COS-7 cells. The procedure: as §2
For assay [4], the target named is T1, human CCK-2 receptor. Put plainly: single experiment of FIG. 21, displacement of [125I]-BH-CCK8, transfected COS-7 cells. The source says:
The lines of best fit shown in FIG. 21 were obtained by nonlinear regression to a single site model with the program Sigmaplot.

Assay [5] addresses T1, human CCK-2 receptor. The experiment in a line: displacement of [125I]-BH-CCK8, CCK-2 receptor on Jurkat cells. As for the experimental part:
as §1, §2
On the technique in general: Displacement assays read how much labelled ligand stays bound in the presence of the test substance.

The target of assay [6] is T1, human CCK-2 receptor. Put plainly: displacement of [125I]-BH-CCK8, Jurkat cells; reference Gamide.
The target of assay [7] is T1, human CCK-2 receptor. Put plainly: displacement of [125I]-BH-CCK8, CCK-2 receptor on transiently transfected COS-7 cells. As for the experimental part:
as §2

Assay [8] has as its target T1, human CCK-2 receptor. The experiment in a line: displacement of [125I]-BH-CCK8, transfected COS-7 cells; reference Gamide.
In assay [9] the target is T1, human CCK-2 receptor. Put plainly: cell-based or functional assay.

B1: hexapeptide LE5 (peptide)
peptide: LEEEEE
On to B1, for which, in [1], the “ED50 (nM), proliferation of IMGE cells, thymidine uptake” value (“ED50 (nM), proliferation of IMGE cells” for short) turned out to be 0.9 nM.

B2: heptapeptide E5AY (peptide)
peptide: EEEEEAY
With B2, the “ED50 (nM), proliferation of IMGE cells” value in assay [1] came to 1.1 nM.

B3: hexapeptide E5A (peptide)
peptide: EEEEEA
For B3, the “ED50 (nM), proliferation of IMGE cells” value in assay [1] was 0.5 nM.

B4: heptapeptide LE5A (peptide)
peptide: LEEEEEA
As to B4, the “ED50 (nM), proliferation of IMGE cells” value in assay [1] was determined as 2.4 nM.

B5: nonapeptide LE5AYG (peptide)
peptide: LEEEEEAYG
As for B5, the “ED50 (nM), proliferation of IMGE cells” value in [1] was determined as 1 nM.

B6: GamideE8,9A (peptide)
peptide: [pGlu]GPWLEEAAEAYGWMDF-NH2
modifications: ends and bridges not checked
notes: Gamide mutant with Glu8 and Glu9 replaced by Ala; Synthesised by Auspep
For the molecule B6, the “% Maximum Binding” value in the assay with human CCK-2 receptor [2] was 97.8%; with human CCK-2 receptor [3], 98.4%. Besides, the half-inhibitory concentration (IC50) in the assay with human CCK-2 receptor [4] was 58.2 nM; in the assay with human CCK-2 receptor [5], 2.8 nM; in the assay with human CCK-2 receptor [7], 112 nM. Besides, the “ratio IC50 GamideE8,9A/IC50 Gamide” value in the assay with human CCK-2 receptor [6] was found to be 2.2; in the assay with human CCK-2 receptor [8], 4.1.

B7: amidated gastrin17 (Gamide) (peptide)
peptide: XGPWLEEEEEAYGWMDF
modifications: N-terminal pyroglutamate (Z); C-terminal phenylalanine amide
notes: Synthetic peptide bought from Bachem; Also tested with 1 uM DFO or with 8 moles Bi3+ per mole; also called G17
On to B7, for which the “% Maximum Binding” value with human CCK-2 receptor [2] was determined as 100%; in the assay with human CCK-2 receptor [3] it was 94.2%. The same molecule gave an inositol phosphate turnover with human CCK-2 receptor [9] of 4 fold.

B8: GamideE7A (peptide)
peptide: [pGlu]GPWLEAEEEAYGWMDF-NH2
modifications: ends and bridges not checked
notes: Gamide mutant with Glu7 replaced by Ala; Synthesised by Auspep
With B8, the entries for the “% Maximum Binding” value with human CCK-2 receptor [2] and with human CCK-2 receptor [3] were 96.7% and 92%, respectively. Further, the 50% inhibitory concentration (IC50) in the assay with human CCK-2 receptor [4] amounted to 25.1 nM; in the assay with human CCK-2 receptor [5], 3.1 nM; in the assay with human CCK-2 receptor [7], 37 nM. Further, the “ratio IC50 GamideE7A/IC50 Gamide” value in the assay with human CCK-2 receptor [6] amounted to 2.4; in the assay with human CCK-2 receptor [8], 1.4.

For orientation: IC50 means the concentration needed to halve the response being measured.
